# Laboratory results published in patent US20200230115A1, “METHODS OF TREATING INFLUENZA-ASSOCIATED VIRAL PNEUMONIA” (priority 2017, published 2020).
# “Also recorded” adds a separate entry of the source.
# B1: KGF: keratinocyte growth factor, a potent pulmonary epithelial mitogen; cognate receptor FGFR2 (protein, UniProt P21781 32-194, looked up)
# Fibroblast growth factor 7: CNDMTPEQMATNVNCSSPERHTRSYDYMEGGDIRVRRLFCRTQWYLRIDKRGKVKGTQEMKNNYNIMEIRTVAVGIVAIKGVESEFYLAMNKEGKLYAKKECNEDCNFKELILENHYNTYASAKWTHNGGEMFVALNQKGIPVRGKKTKKEQKTAHFLPMAIT
# Experiments:
# Set-up in all cases: species or system DBA/2J mice
# Settings in all cases: mouse, in vivo
# [1] = system: IAV (WSNHAnc-Asp225Gly)
# [2] = system: IAV (WSNHAnc-Asp225Gly); remark: listed apart in the source
# [3] = system: IAV (WSNHAnc-Asp225Gly); remark: listed apart in the source
molecule,measurement,setting,value
B1,KGF dose of maximal effect on IAV-induced mortality,[1],5 mg/kg
same,mortality after KGF pretreatment,[1],did not enhance mortality
same,"mortality, dose response",[1],dose-dependent acceleration of mortality
same,shortening of survival,[1],3 days
same,IAV-NP staining of lung sections,[2],substantially more intense; also recorded: markedly more intense and diffuse
same,blinded semiquantitative analysis of IAV-NP staining,[2],KGF-induced increase in viral burden and acceleration of spread
same,pulmonary viral burden vs PBS/IAV controls,[3],three- to fivefold greater; also recorded: No difference in viral burden
